Reference: patent publication US20210070840A1 (Bristol-Myers Squibb, published 2021)
Where a chain is given by its changes, count along the chain named.

T1: human IL-23 (human, UniProt P29460 23-328; Q9NPF7 20-189)
T1 construct: Secreted from Sf9 cells for the crystal structure; One molecule is used for all three; also called Interleukin-23
T1 sequence (looked up) 1: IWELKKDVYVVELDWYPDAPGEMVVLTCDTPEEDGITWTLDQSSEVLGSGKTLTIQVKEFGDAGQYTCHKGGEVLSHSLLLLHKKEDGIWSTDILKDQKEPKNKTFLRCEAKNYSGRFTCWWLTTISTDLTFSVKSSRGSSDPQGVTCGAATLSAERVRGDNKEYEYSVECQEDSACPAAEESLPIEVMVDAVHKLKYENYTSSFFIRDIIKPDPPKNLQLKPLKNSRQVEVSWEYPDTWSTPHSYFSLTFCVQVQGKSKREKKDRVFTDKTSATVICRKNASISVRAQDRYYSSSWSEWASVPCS
T1 sequence (looked up) 2: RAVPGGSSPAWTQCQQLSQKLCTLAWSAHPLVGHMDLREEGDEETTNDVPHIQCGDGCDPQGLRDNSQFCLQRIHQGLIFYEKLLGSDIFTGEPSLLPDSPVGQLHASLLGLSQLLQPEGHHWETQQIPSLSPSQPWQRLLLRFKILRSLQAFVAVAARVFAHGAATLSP

B1: Adnectin 2 (designed binder)
chain: MGVSDVPRDLEVVAATPTSLLISWEHDYPYRRYYRITYGETGGNSPVQEFTVPKDVDTATISGLKPGVDYTITVYAVTSSYKYDMQYSPISINYRTEIDKPSQHHHHHH
notes: also called anti-IL-23 Adnectin; ATI-000929
B2: Adnectin 2 P87→A (designed binder)
chain: B1 chain with P89A
B3: Adnectin 2 T35→D (designed binder)
chain: B1 chain with T37D
B4: Adnectin 2 T35→E (designed binder)
chain: B1 chain with T37E
B5: Adnectin 2 T35→N (designed binder)
chain: B1 chain with T37N
B6: Adnectin 2 T35→Q (designed binder)
chain: B1 chain with T37Q
B7: Adnectin 2 V45→D (designed binder)
chain: B1 chain with V47D
B8: Adnectin 2 V45→E (designed binder)
chain: B1 chain with V47E
B9: Adnectin 2 V45→N (designed binder)
chain: B1 chain with V47N
B10: Adnectin 2 V45→Q (designed binder)
chain: B1 chain with V47Q
B11: Adnectin 2 V75→K (designed binder)
chain: B1 chain with V77K
B12: Adnectin 2 V75→Q (designed binder)
chain: B1 chain with V77Q
B13: Adnectin 2 V75→Y (designed binder)
chain: B1 chain with V77Y
B14: Adnectin 2 Y28→A (designed binder)
chain: B1 chain with Y30A
B15: Adnectin 2 Y73→A (designed binder)
chain: B1 chain with Y75A
B16: Adnectin 2 Y73→N (designed binder)
chain: B1 chain with Y75N
B17: Adnectin 2 Y73→Q (designed binder)
chain: B1 chain with Y75Q
B18: Adnectin 2 Y73→R (designed binder)
chain: B1 chain with Y75R
B19: Adnectin 2 Y81→A (designed binder)
chain: B1 chain with Y83A

target: T1, human IL-23; assay: ratio of competition ELISA IC50, parent/mutant

First: B1
Second: B2
The “Activity (parent/mutant)” value of the first is higher: 1 ratio for the first, 0.1 ratio for the second.

Compared with B3, B4 is higher in “Activity (parent/mutant)” value: 0.02 ratio for the first, 1.7 ratio for the second.

Compared with B5, B6 is higher in “Activity (parent/mutant)” value: 0.6 ratio for the first, 1 ratio for the second.

Compared with B7, B8 is higher in “Activity (parent/mutant)” value: 1.2 ratio for the first, 1.9 ratio for the second.

Going from B9 to B10, the “Activity (parent/mutant)” value rises from 1.8 ratio to 2.9 ratio.

First: B11
Second: B12
The “Activity (parent/mutant)” value of the first is lower: 0.2 ratio for the first, 0.4 ratio for the second.

Compared with B13, B14 is lower in “Activity (parent/mutant)” value: 0.4 ratio for the first, 0.08 ratio for the second.

Compared with B15, B16 is lower in “Activity (parent/mutant)” value: 1.5 ratio for the first, 0.8 ratio for the second.

Compared with B17, B18 is lower in “Activity (parent/mutant)” value: 3.8 ratio for the first, 0.8 ratio for the second.

In the case of B19, the “Activity (parent/mutant)” value is reported as 0.03 ratio.

target: T1, human IL-23; assay: competition ELISA: Adnectin + 1 nM IL-23 on coated IL-23R-Fc

Going from B1 to B2, the IC50 rises from 1 nM to 8.3 nM (8.3-fold).

Compared with B3, B4 is 82-fold lower in IC50: 49 nM for the first, 0.6 nM for the second.

First: B5
Second: B6
The IC50 of the first is 1.7-fold higher: 1.7 nM for the first, 1 nM for the second.

Going from B7 to B8, the IC50 falls from 0.83 nM to 0.51 nM (1.6-fold). The second is the more potent here.

Compared with B9, B10 is 1.6-fold lower in IC50: 0.54 nM for the first, 0.34 nM for the second.

Compared with B11, B12 is 2.5-fold lower in IC50: 5.7 nM for the first, 2.3 nM for the second. The second is the more potent here.

Compared with B13, B14 is 5.9-fold higher in IC50: 2.2 nM for the first, 13 nM for the second. The first is the more potent here.

First: B15
Second: B16
The IC50 of the first is 1.8-fold lower: 0.65 nM for the first, 1.2 nM for the second. The first is the more potent here.

First: B17
Second: B18
The IC50 of the first is 4.6-fold lower: 0.26 nM for the first, 1.2 nM for the second. The first is the more potent here.

For B19, the IC50 was 35 nM.

target: T1, human IL-23; assay: SPR (Biacore T100), immobilized human IL-23, single cycle kinetics

For B1, the Kd was 2 nM.
